From US8663616B2, “Enzymatic peracid generation for use in oral care products” (E I du Pont de Nemours and Company, priority 2010, dated 2014)

B1: EZ-20: C277S-EPEPEPEPEPE-link1-CXH201-H6, SEQ ID NO: 444 (protein)
chain: MAFFDLPLEELKKYRPERYEEKDFDEFWEETLAESEKFPLDPVFERMESHLKTVEAYDVTFSGYRGQRIKGWLLVPKLEEEKLPCVVQYIGYNGGRGFPHDWLFWPSMGYICFVMDTRGQGSGWLKGDTPDYPEGPVDPQYPGFMTRGILDPRTYYYRRVFTDAVRAVEAAASFPQVDQERIVIAGGSQGGGIALAVSALSKKAKALLCDVPFLCHFRRAVQLVDTHPYAEITNFLKTHRDKEEIVFRTLSYFDGVNFAARAKIPALFSVGLMDNISPPSTVFAAYNYYAGPKEIRIYPYNNHEGGGSFQAVEQVKFLKKLFEKGEPEPEPEPEPEGPGSGGAGSPGSAGGPGSWKTKKILLSRTRRIMRQVVRSVMHKIWHHHHHH
B2: EZ-22: C277S-EPEPEPEPEPE-Link1-CXHG2-H6, SEQ ID NO: 446 (protein)
chain: MAFFDLPLEELKKYRPERYEEKDFDEFWEETLAESEKFPLDPVFERMESHLKTVEAYDVTFSGYRGQRIKGWLLVPKLEEEKLPCVVQYIGYNGGRGFPHDWLFWPSMGYICFVMDTRGQGSGWLKGDTPDYPEGPVDPQYPGFMTRGILDPRTYYYRRVFTDAVRAVEAAASFPQVDQERIVIAGGSQGGGIALAVSALSKKAKALLCDVPFLCHFRRAVQLVDTHPYAEITNFLKTHRDKEEIVFRTLSYFDGVNFAARAKIPALFSVGLMDNISPPSTVFAAYNYYAGPKEIRIYPYNNHEGGGSFQAVEQVKFLKKLFEKGEPEPEPEPEPEGPGSGGAGSPGSAGGPGSPLWRRITKRKLVRPVATLMWYWFTSKRHHHHHH
B3: EZ-26: C277S-EPEPEPEPEPE-Link1-CXHG102-H6, SEQ ID NO: 450 (protein)
chain: MAFFDLPLEELKKYRPERYEEKDFDEFWEETLAESEKFPLDPVFERMESHLKTVEAYDVTFSGYRGQRIKGWLLVPKLEEEKLPCVVQYIGYNGGRGFPHDWLFWPSMGYICFVMDTRGQGSGWLKGDTPDYPEGPVDPQYPGFMTRGILDPRTYYYRRVFTDAVRAVEAAASFPQVDQERIVIAGGSQGGGIALAVSALSKKAKALLCDVPFLCHFRRAVQLVDTHPYAEITNFLKTHRDKEEIVFRTLSYFDGVNFAARAKIPALFSVGLMDNISPPSTVFAAYNYYAGPKEIRIYPYNNHEGGGSFQAVEQVKFLKKLFEKGEPEPEPEPEPEPEPEGPGSGGAGSPGSAGGPGSLRFLARRFLKLRRARKWWNAWKVWVTRHHHHHH
B4: EZ-23: C277S-EPEPE-Link1-EPEPE-CXH104-H6, SEQ ID NO: 447 (protein)
chain: MAFFDLPLEELKKYRPERYEEKDFDEFWEETLAESEKFPLDPVFERMESHLKTVEAYDVTFSGYRGQRIKGWLLVPKLEEEKLPCVVQYIGYNGGRGFPHDWLFWPSMGYICFVMDTRGQGSGWLKGDTPDYPEGPVDPQYPGFMTRGILDPRTYYYRRVFTDAVRAVEAAASFPQVDQERIVIAGGSQGGGIALAVSALSKKAKALLCDVPFLCHFRRAVQLVDTHPYAEITNFLKTHRDKEEIVFRTLSYFDGVNFAARAKIPALFSVGLMDNISPPSTVFAAYNYYAGPKEIRIYPYNNHEGGGSFQAVEQVKFLKKLFEKGEPEGPGSGGAGSPGSAGGPGSEPERMLSRILRMFVRILKRERLSQVRGLFVHHHHHH
B5: EZ-24: C277S-…-Link1-CXH104-H6, SEQ ID NO: 448 (protein)
chain: MAFFDLPLEELKKYRPERYEEKDFDEFWEETLAESEKFPLDPVFERMESHLKTVEAYDVTFSGYRGQRIKGWLLVPKLEEEKLPCVVQYIGYNGGRGFPHDWLFWPSMGYICFVMDTRGQGSGWLKGDTPDYPEGPVDPQYPGFMTRGILDPRTYYYRRVFTDAVRAVEAAASFPQVDQERIVIAGGSQGGGIALAVSALSKKAKALLCDVPFLCHFRRAVQLVDTHPYAEITNFLKTHRDKEEIVFRTLSYFDGVNFAARAKIPALFSVGLMDNISPPSTVFAAYNYYAGPKEIRIYPYNNHEGGGSFQAVEQVKFLKKLFEKGEPEPEPEGPGSGGAGSPGSAGGPGSRMLSRILRMFVRILKRERLSQVRGLFVHHHHHH
B6: EZ-25: C277S-EPEPE-Link1-EPEPE-CXHG102-H6, SEQ ID NO: 449 (protein)
chain: MAFFDLPLEELKKYRPERYEEKDFDEFWEETLAESEKFPLDPVFERMESHLKTVEAYDVTFSGYRGQRIKGWLLVPKLEEEKLPCVVQYIGYNGGRGFPHDWLFWPSMGYICFVMDTRGQGSGWLKGDTPDYPEGPVDPQYPGFMTRGILDPRTYYYRRVFTDAVRAVEAAASFPQVDQERIVIAGGSQGGGIALAVSALSKKAKALLCDVPFLCHFRRAVQLVDTHPYAEITNFLKTHRDKEEIVFRTLSYFDGVNFAARAKIPALFSVGLMDNISPPSTVFAAYNYYAGPKEIRIYPYNNHEGGGSFQAVEQVKFLKKLFEKGEPEPEPEGPGSGGAGSPGSAGGPGSEPEPEPELRFLARRFLKLRRARKWWNAWKVWVTRHHHHHH
B7: EZ-21: C277S-EPEPE-link1-EPEPE-CXHG2-H6, SEQ ID NO: 445 (protein)
chain: MAFFDLPLEELKKYRPERYEEKDFDEFWEETLAESEKFPLDPVFERMESHLKTVEAYDVTFSGYRGQRIKGWLLVPKLEEEKLPCVVQYIGYNGGRGFPHDWLFWPSMGYICFVMDTRGQGSGWLKGDTPDYPEGPVDPQYPGFMTRGILDPRTYYYRRVFTDAVRAVEAAASFPQVDQERIVIAGGSQGGGIALAVSALSKKAKALLCDVPFLCHFRRAVQLVDTHPYAEITNFLKTHRDKEEIVFRTLSYFDGVNFAARAKIPALFSVGLMDNISPPSTVFAAYNYYAGPKEIRIYPYNNHEGGGSFQAVEQVKFLKKLFEKGEPEPEGPGSGGAGSPGSAGGPGSEPEPEPLWRRITKRKLVRPVATLMWYWFTSKRHHHHHH
B8: EZ-19: C277S-EPEPE-link1-EPEPE-CXH201-H6, SEQ ID NO: 443 (protein)
chain: MAFFDLPLEELKKYRPERYEEKDFDEFWEETLAESEKFPLDPVFERMESHLKTVEAYDVTFSGYRGQRIKGWLLVPKLEEEKLPCVVQYIGYNGGRGFPHDWLFWPSMGYICFVMDTRGQGSGWLKGDTPDYPEGPVDPQYPGFMTRGILDPRTYYYRRVFTDAVRAVEAAASFPQVDQERIVIAGGSQGGGIALAVSALSKKAKALLCDVPFLCHFRRAVQLVDTHPYAEITNFLKTHRDKEEIVFRTLSYFDGVNFAARAKIPALFSVGLMDNISPPSTVFAAYNYYAGPKEIRIYPYNNHEGGGSFQAVEQVKFLKKLFEKGEPEPEGPGSGGAGSPGSAGGPGSEPEPEWKTKKILLSRTRRIMRQVVRSVMHKIWHHHHHH

How the values were obtained:
[1] = Peracetic acid generated in solution by C277S CXH fusions (Example 9); conditions: 0.5 μM enzyme, sarkosyl buffer, 100 mM triacetin, 100 mM H2O2, pH 7.2, 10 min, 37° C.
[2] = Peracetic acid from C277S CXH fusions exposed to hydroxyapatite discs (Example 9); conditions: no enzyme control subtracted; for Peracetic acid (ppm) Exposed to Hydroxyapatite, Disc: disc-bound enzyme, 100 mM triacetin, 100 mM H2O2, 30 min, 37° C.; for Peracetic acid (ppm) Exposed to Hydroxyapatite, Supernatant: unbound enzyme in supernatant after 10 μM enzyme on disc

Row | Molecule | Peracetic acid (ppm) In Solution [1] [ppm] | Peracetic acid (ppm) Exposed to Hydroxyapatite, Disc [2] [ppm] | Peracetic acid (ppm) Exposed to Hydroxyapatite, Supernatant [2] [ppm]
1 | B1 | 2265 | 2795 | 1229
2 | B2 | 2305 | 2495 | 477
3 | B3 | 2273 | 1849 | 1636
4 | B4 | 2212 | 4463 | 1712
5 | B5 | 2951 | 3453 | 719
6 | B6 | 1703 | 1791 | 1029
7 | B7 | 2764 | 3109 | 1581
8 | B8 | 4088 | 3136 | 1665
